pKd: −log10 of the molar value.
Assays:
[1] = biological target: sDR5 protein (extracellular domain of TRAIL receptor DR5, residues 1-130) (human); assay: cell-based or functional assay
[2] = biological target: sDR5 protein (extracellular domain of TRAIL receptor DR5, residues 1-130) (human); assay: SPR, BIAcore 2000, sDR5 immobilised
[3] = biological target: sDR5 protein (extracellular domain of TRAIL receptor DR5, residues 1-130) (human); assay: SPR, BIAcore 2000, sDR5 amine-coupled to chip, TRAIL 300-900 nM as analyte, 1:1 model, 25° C., apparent KD

| fold change of apparent KD against wild-type TRAIL [2] | pKd [3] | Substance | cytotoxic activity on human SK-HEP-1 hepatoma cells (MTT viability, concentration giving 50% cell death) [1] | cytotoxic activity on human SK-HEP-1 hepatoma cells (MTT viability, concentration giving 50% reduction of viability) [1] |
| --- | --- | --- | --- | --- |
| 18 fold | 6.53 | TRAIL deletion mutant protein containing the deletion of residues 132-135 in the AA″ loop (ligand) | > 1000 ng/mL |  |
|  | 7.80 | wild-type TRAIL protein (human, residues 114-281) (ligand) |  | 50 ng/mL |

Source: patent publication US20040146968A1
